Values quoted from earlier work in PMC6359508.

Biological target: actin microfilament (UniProt P68133)

For “V-ATPase B subunit (from UniProt P21281)”, the Kd is given as 150 nM.
